Among the data in US20210380703A1 (RIGEL PHARMACEUTICALS, published 2021) are optical density values, retold here.

Numbering of substitutions follows the chain as printed.

To fix the notation:
B1: 369_B08 (antibody, V domains shown)
VH: EVQLLESGGGLVQPGGSLRLSCAASGFTFDSYGMHWVRQAPGKGLEWVSSINYNGGYTSYADSVKGRFTISRDNSKNTLYLQMNSLRAEDTAVYYCARAATWHDTHLDYWGQGTLVTVSS
VL: DIQMTQSPSSLSASVGDRVTITCRASQSILSYVNWYQQKPGKAPKLLIYAATSRASGVPSRFSGSGSGTDFTLTISSLQPEDFATYYCQQSYESPLTFGGGTKVEIK
notes: Group II
B2: 370_D06 (antibody, V domains shown)
VH: B1 VH with D30S, H35N, S49A, T101N
VL: B1 VL with L30I, V33L, L47V, R54L, E93S
notes: Group I
B3: 369_C11 (antibody, V domains shown)
VH: B1 VH with D30S, S31D, S49A, S50G, S59G
VL: B1 VL with V33L, L47V, E93D, S94T
notes: Group II
B4: 370_B01 (antibody, V domains shown)
VH: B1 VH with S31D, S50G, T58K, T101N, H106A
VL: B1 VL with A50V, T52S, E93S, S94L
notes: Group I
B5: 370_E12 (antibody, V domains shown)
VH: B1 VH with S49A, S50G
VL: B1 VL with S94N
notes: Group II
B6: 369_C06 (antibody, V domains shown)
VH: B1 VH with D30S, G33S, T58K
VL: B1 VL with E93D
notes: Group II
B7: 369_G10 (antibody, V domains shown)
VH: B1 VH with D30S, S49A, T101N, H106A
VL: B1 VL with V33L, L47V, E93D
notes: Group I
B8: 369_E03 (antibody, V domains shown)
VH: B1 VH with D30S, S49A, S50G
VL: B1 VL with R54L, S94N
notes: Group II
B9: 369_H03 (antibody, V domains shown)
VH: B1 VH with D30S, G33S, S49A, G55S, T58K, T101N, H106A
VL: B1 VL with L30V, V33L, A51T, E93D, S94T
notes: Group I
B10: 370_B06 (antibody, V domains shown)
VH: B1 VH with D30S, S49A, S50G
VL: B1 VL with L30V, L47V, S94T
notes: Group II
B11: 369_C09 (antibody, V domains shown)
VH: B1 VH with D30S, S59G
VL: B1 VL with L30V, V33L, L47V, A55H, E93D, S94L
notes: Group II
B12: 370_B07 (antibody, V domains shown)
VH: B1 VH with D30S, S49A, S50N, G55S, T58K
VL: B1 VL with S31T, A55H, E93S
notes: Group II
Note: test concentration or dose not given here.

Chain of mouse ACVR2A (P27038 20-135 limits assumed): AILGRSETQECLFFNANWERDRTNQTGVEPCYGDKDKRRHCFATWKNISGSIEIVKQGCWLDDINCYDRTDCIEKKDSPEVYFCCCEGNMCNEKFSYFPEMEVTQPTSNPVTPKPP

The target in the first experiment is T1, biotinylated goat anti-human kappa light chain.
T1 construct: positive control of the ELISA
Put plainly: ELISA, positive control. The method, boiled down: (§1)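 Binding signal was read by ELISA after ACVR2A-specific monoclonal antibodies were tested against human ACVR2A and mouse ACVR2A, with human Fc as the negative control.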
For orientation: ELISA stands for enzyme-linked immunosorbent assay.
The molecule B1 showed an optical density of 3.29 OD.
Same read-out and setting: the result for B2 reads 3.48 OD; that for B3, 3.48 OD.
The same measure, in the same setting: the result for B4 reads 3.75 OD; that for B5, 3.66 OD.
On the same count and under the same terms, the result for B6 reads 3.17 OD; that for B7, 3.49 OD.
Regarding B8, the optical density was determined as 3.37 OD.
Molecule B9 had an optical density of 3.47 OD.
Consider B10, for which the optical density was 3.37 OD.
On the same count and under the same terms, the result for B11 reads 3.41 OD.
Still for that read-out and setting: the result for B12 reads 3.48 OD.

The next experiment addresses mouse ACVR2A (mouse, UniProt P27038 20-135, limits assumed). Kind of experiment: ELISA. The method in brief:
as §1
On to B1, for which the optical density was 2.88 OD.
B2 had an optical density of 2.66 OD.
Same read-out and setting: the result for B3 reads 2.91 OD; that for B4, 3.47 OD; that for B5, 3.44 OD.
Same read-out and setting: the result for B6 reads 3.06 OD; that for B7, 3.29 OD.
As for B8, the optical density was 3.36 OD.
Same read-out and setting: the result for B9 reads 3.08 OD; that for B10, 3.09 OD; that for B11, 3.05 OD.
Still for that read-out and setting: the result for B12 reads 2.2 OD.

Another experiment deals with T2, human ACVR2A (human, UniProt P27037 20-135, limits assumed).
T2 construct: also called activin receptor, type II A
T2 sequence (P27037 20-135 limits assumed): as the sequence (P27038 20-135 limits assumed) above, with R20K, I73V counted along it
Kind of experiment: ELISA. The method in brief: as §1
In turn, B1 had an optical density of 2.75 OD.
On the same count and under the same terms, the result for B2 reads 2.26 OD.
The same measure, in the same setting: the result for B3 reads 2.8 OD; that for B4, 3.38 OD.
Same read-out and setting: the result for B5 reads 3.39 OD; that for B6, 2.75 OD.
B7 gave an optical density of 3.37 OD.
The same measure, in the same setting: the result for B8 reads 3.15 OD; that for B9, 2.83 OD; that for B10, 2.88 OD.
The same measure, in the same setting: the result for B11 reads 2.88 OD; that for B12, 1.91 OD.
